Test results taken from paper doi:10.1101/2020.07.07.191163 (bioRxiv, 2020).

Target: the molecule itself
Experiment: native MS

B1: Bacillus subtilis pyruvate kinase PykA (enzyme, B. subtilis, UniProt P80885 1-585, looked up)
chain: MRKTKIVCTIGPASESIEMLTKLMESGMNVARLNFSHGDFEEHGARIKNIREASKKLGKNVGILLDTKGPEIRTHTMENGGIELETGKELIISMDEVVGTTDKISVTYEGLVHDVEQGSTILLDDGLIGLEVLDVDAAKREIKTKVLNNGTLKNKKGVNVPGVSVNLPGITEKDARDIVFGIEQGVDFIAPSFIRRSTDVLEIRELLEEHNAQDIQIIPKIENQEGVDNIDAILEVSDGLMVARGDLGVEIPAEEVPLVQKELIKKCNALGKPVITATQMLDSMQRNPRPTRAEASDVANAIFDGTDAIMLSGETAAGSYPVEAVQTMHNIASRSEEALNYKEILSKRRDQVGMTITDAIGQSVAHTAINLNAAAIVTPTESGHTARMIAKYRPQAPIVAVTVNDSISRKLALVSGVFAESGQNASSTDEMLEDAVQKSLNSGIVKHGDLIVITAGTVGESGTTNLMKVHTVGDIIAKGQGIGRKSAYGPVVVAQNAKEAEQKMTDGAVLVTKSTDRDMIASLEKASALITEEGGLTSHAAVVGLSLGIPVIVGLENATSILTDGQDITVDASRGAVYQGRASVL
  stoichiometry N: 4
